Experimental data from patent US8470556B2, “Nucleic acids that encode antigen binding proteins that bind PAR-2” (Amgen Inc., priority 2007, dated 2013).
Substitutions are numbered along the chain they refer to.

B1: 1A1: anti-PAR-2 monoclonal antibody, blocking; heavy SEQ ID NO: 9, light SEQ ID NO: 11 (antibody, listed as Homo sapiens, V domains shown)
VH: EVQLVQSGAEVKKPGESLKISCKGSGYNFISHWIGWVRQMPGKGLEWMGMIYPGDSDTRYSPSFQGQVTISADKSINTAYLQWRSLKASDTAMYFCARHGGITGTTFYYDFGMDVWGQGTTVTVSS
VL: SYELTQPPSVSVSPGQTARITCSGDALPKQYASWYQQKPGQAPLLVIYRDSERPSGLPERFSGSSSGTTVTLTISGVQAEDEADYYCQSADSGGSYVFGTGTKVTVL
B2: 9B12: anti-PAR-2 monoclonal antibody; heavy SEQ ID NO: 27, light SEQ ID NO: 29 (antibody, listed as Homo sapiens, V domains shown)
VH: QVQLVESGGGVVQPGRSLRLSCAASGFTFSSYGMHWVRQAPGKGLEWVAVIWYDGSNKYYADSVKGRFTISRDNSKNTLYLQMNSLRAEDTAVYYCARDLGAAAGTGFDYWGQGTLVTVSS
VL: QSVLTQPPSVSAAPGQKVTISCSGSSSNIGNNYVSWYQQLPGTAPKLLIYDNNKRPSGIPDRFSGSKSGTSATLGITGLQTGDEADYYCGTWDSSLSAGVVFGGGTKLTVL
B3: 1C7: anti-PAR-2 monoclonal antibody; heavy SEQ ID NO: 17, light SEQ ID NO: 19 (antibody, listed as Homo sapiens, V domains shown)
VH: B1 VH with N28S, I30T, H32Y, M50I, N77R, R84S, F95Y, G100K, F111Y
VL: B1 VL with D25E, L44V, R49K, L57I, G93N, S95A
B4: 2C6: binding non-blocking anti-PAR2 mAb; heavy SEQ ID NO: 23, light SEQ ID NO: 25 (antibody, listed as Homo sapiens, V domains shown)
VH: QVQLVQSGAEVKKPGASVKVSCKASGYTFTGYFFHWVRQAPGQGLEWVGWINPNSGATHFAQKFQGRVTMTRDTSISTAYMELSRLRSDDTAVYYCARDGSNWNRDYGMDVWGQGTTVTVSS
VL: QSVLTQPPSASGTPGQRVTISCSGSSSNIGINHVYWYQQLPGTAPKIFIYRNNQRPSGVPDRFSGSKSGTSASLAISGLRSEDEADYYCAVWDDSLSGVVFGGGTKLTVLG

What was measured:
Sprague Dawley rats = assay: Carrageenan paw edema in Sprague Dawley rat (plethysmography); type: in vivo; details: antibodies IP 1.5 mg/rat, indomethacin 5 mg/kg
Protocol: (§1) This example describes the effects of PAR-2 antibodies on paw edema in an acute AIA model substantially as described previously. Briefly, 6-8 week old Sprague Dawley or Lewis rats (Charles River Laboratories, Wilmington, Mass.) were injected subcutaneously (SC) in the plantar region of the hind paw with 1% lambda carrageenan in one hind paw and control (saline) in the other. Blocking PAR-2 monoclonal antibody (1A1) or control (positive or negative control; see footnotes to Table 4) was administered intraperitoneally (IP) eighteen hours prior to adjuvant injection at 1.5 mg/rat (approximately 8-10 mg/kg), swelling was then measured by plethysomgraphy at selected time points. Data were expressed as volume of water in milliliters (mL) displaced per paw versus baseline measurements for that paw.

Lewis rats [1] = assay: Acute adjuvant-induced arthritis (C/K) model, knee joint thickness; type: in vivo; details: Lewis rat, group mean ± SEM
Protocol: This example describes acute and chronic models of arthritis. In both models, animals are anesthetized, for example by Ketamine/Xylazine mixture (mouse mix or rat mix, respectively) or isoflurane for all intraarticular (IA), periarticular (PA) injections or intradermal (ID) injections.
Joint injections, IA or PA, are targeted at either knees or hind limb paws. PA injections are equally divided across four sites surrounding the joint of interest. Paw injections are administered ID into the plantar area of the hind paw. To serve as an internal control, one knee or hind-limb paw is injected with vehicle alone or sterile PBS. Preparation of the injection area includes shaving the joint area after animals are anesthetized, and scrubbing with an iodine solution followed by an alcohol disinfectant. All articular injections are given with a 30-gauge needle or equivalent, and when needed by a gastight (i.e., Hamilton) syringe, for small injection volumes (i.e. 10 microL).
For induction of acute AIA (aAIA), animals are injected on day zero (D0) with 1-4% lambda-carrageenan and 1-4% kaolin (C/K) by IA injection in saline. Concentrations of both compounds are dependent on intended disease severity. Total injection volumes for the inducing agent are between 10-20 microL for mice and 60-80 microL for rat. Both concentration and injection volume are consistent with published methodologies (J Clin Invest. 2003; 111(1):35-41, and J Pharmacol Exp Ther. 2006; 316(3):1017-24). Alternatively, specific PAR-2 peptide agonists, or other activators of inflammation (such as trypsin, or human beta-tryptase [J Clin Invest. 2003; 111(1):35-41, J Pharmacol Exp Ther. 2006; 316(3):1017-24, J Pharmacol Sci. 2005 97(1):38-42, and Br J Pharmacol. 1999 127(5):1083-90]) or the equivalent, may be used. Concentrations used are selected for intended disease severity, and total injection volumes are appropriate to the animal being injected.
For both acute and chronic AIA studies, caliper measurements of joint diameter are taken of all joints of interest prior to any injection. Tracking of disease may include caliper measurements of joint diameter as well as flexible tape measurements of joint circumference, and visual scoring. Alternative methods (i.e., use of a plethysmometer) may also be used. Severity of cAIA is scored by one or both of the criteria shown below:
In this manner, 6-8 week old Lewis rats were injected with C/K plus treatment (or control) in the left knee, and negative control in each right knee, as for the acute model. Joint thickness was measured at set time points after treatment, using an average of three caliper readings. The change in thickness of the left knee as compared to the right knee was expressed as percent change, and is shown in Table 3 below.

rats = assay: Paw edema study, further experiments (IP versus SC, dose dependence); type: in vivo, rat
[2] = molecular target: T1, N-terminal PAR-2/Fc (full length and truncated) (Homo sapiens, UniProt P55085); assay: Western blot, binding to uncleaved versus clipped N-terminal PAR-2/Fc; details: for Binding to Cleavage Site Up stream: upstream binder binds only full-length PAR-2/Fc; for Binding to Cleavage Site Down stream: downstream binder binds both full length and truncated PAR-2-Fc
T1 construct: made in house; host or cells: CHO cells (10% FCS for uncleaved; serum-free for clipped)
T1 sequence (P55085 with tags, fused parts or gaps limits assumed): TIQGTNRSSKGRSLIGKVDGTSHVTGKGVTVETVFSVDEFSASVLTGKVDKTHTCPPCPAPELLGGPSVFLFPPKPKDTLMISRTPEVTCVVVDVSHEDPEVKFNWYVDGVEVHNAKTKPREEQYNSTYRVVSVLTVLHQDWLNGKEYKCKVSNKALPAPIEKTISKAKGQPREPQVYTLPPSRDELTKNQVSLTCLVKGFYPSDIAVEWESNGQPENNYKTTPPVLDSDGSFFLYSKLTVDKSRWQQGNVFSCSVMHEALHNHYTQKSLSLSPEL
Excerpt: N-terminal PAR-2/Fc polypeptide (SEQ ID NO:6) is expressed in suitable mammalian cells such as CHO cells. Expression supernatant from CHO expression cells cultured in serum-free media contain a CHO cell trypsin-like serine protease that cleaves PAR-2/Fc at the activation Arg-Ser bond, generating the “clipped” version of the PAR-2/Fc polypeptide. CHO expression cells cultured in 10% fetal calf serum (which contains normal levels of plasma proteinase inhibitors at concentrations far in excess of the concentration of the CHO cell trypsin-like serine protease) express uncleaved N-terminal PAR-2/Fc in culture supernatants. Both clipped and uncleaved proteins are purified using methods that are suitable for isolation and purification of proteins comprising an Fc regions (for example, using a MabSelect™ resin systems, from GE Healthcare, Piscataway, N.J.)). The resultant purified Fc-constructs are analyzed by amino terminal sequence analysis (Edman degradation), size exclusion chromatrography, absorbance spectral scan, and mass spectroscopy, as needed.
To analyze binding to uncleaved versus cleaved PAR-2, various amounts of purified uncleaved and clipped N-terminal PAR2-Fc are subjected to SDS-PAGE using 8-16% polyacrylamide gradient gels (Novex gels, Invitrogen Life Technologies) in a Tris-Glycine buffer system. Gel lanes containing See Blue standards (Novex, Invitrogen Life Technologies) for molecular weight identification are also included. Following electrophoresis, proteins are transferred from gels onto nitrocellulose membranes using a Novex XCell II Blot Module (Invitrogen Life Technologies). Membranes are blocked with 1:1, Odyssey blocking buffer, OBB, (LI-COR Biosciences):TBS (Tris Buffer Saline) overnight at 4 C with shaking. Antibodies to be analyzed are diluted in 1:1 OBB:TBS at a desired final concentration for 1 hr at room temperature. Membranes are washed extensively with 0.1% Tween 20 in TBS (3-4 changes of 100 ml over ˜1 hr). Membranes are then exposed to the appropriate secondary antibody-Alexa680 (Molecular Probes, Invitrogen Life Technologies) conjugate (goat anti-rabbit IgG, or goat anti-mouse IgG) diluted 1:5000 in 1:1 (OBB:TBS) for 1 hr at room temperature. Membranes are washed as described above, and if desired, analyzed using a LI-COR Odyssey Infrared Imaging System (LI-COR Biosciences).
(§2) Several PAR-2 antibodies were tested in different assay formats; Table 2 summarizes the results. IC50 values were determined in a FLIPR assay for Ca2+ mobilization described previously; binding to the upstream region of the cleavage site versus the downstream region of the cleavage site was determined using the Western blot assay described previously.

[3] = Pharmacokinetic analysis in the paw edema study; type: in vivo, rat; details: SC administered
Lewis rats [4] = assay: Carrageenan paw edema in Lewis rat (plethysmography); type: in vivo; details: IP 18 h prior to carrageenan, 1.5 mg/rat
Protocol: as §1

PAR-2 = molecular target: T2, PAR-2 (Homo sapiens, UniProt P55085); assay: FLIPR assay for Ca2+ mobilization; type: cell-based
T2 sequence (P55085 26-397): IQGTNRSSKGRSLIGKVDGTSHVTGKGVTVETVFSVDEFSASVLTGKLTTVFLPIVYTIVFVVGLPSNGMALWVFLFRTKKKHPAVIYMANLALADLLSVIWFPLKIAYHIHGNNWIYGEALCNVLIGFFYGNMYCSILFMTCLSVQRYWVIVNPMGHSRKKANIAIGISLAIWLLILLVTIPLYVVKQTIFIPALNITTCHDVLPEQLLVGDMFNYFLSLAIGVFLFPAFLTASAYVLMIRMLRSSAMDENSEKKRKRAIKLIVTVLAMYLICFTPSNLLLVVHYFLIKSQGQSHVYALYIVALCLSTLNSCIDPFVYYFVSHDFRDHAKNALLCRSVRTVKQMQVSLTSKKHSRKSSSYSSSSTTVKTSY
Excerpt: Hybridoma clones thus generated are screened for reactivity with PAR-2. Initial screening of hybridoma supernatants may utilize a peptide ELISA, a whole cell ELISA and/or a cell-based assay suitable for high-throughput screening (fluorometric microvolume assay technology or FMAT, substantially as described by Fiscella, et al., Nature Biotechnology 21:302-307; 2003). Hybridomas that are positive in this screening method may be further cultured to provide larger amounts of antibody, which can then be purified as described below and screened by additional cell-based assay(s) (for example, a flash plate assay using cells co-expressing apoaequorin, a Ca2+-sensitive photoprotein, substantially as described by Le Poul et al., J. Biomol. Screen. 7(1):57-65; 2002, and PAR-2), or a fluorometric imaging plate reader (FLIPR) assay, which is used to determine changes in intracellular Ca2+ levels, substantially as described in S. Pitchford, Genetic Engineering News vol. 18, Number 15 (1998) and/or Sullivan et al., Methods in Molecular Biology vol. […]
as §2

| Molecule | Paw Edema, volume of water displaced per paw versus baseline (Sprague Dawley rats; 0 Hr) [mL] | Paw Edema, volume of water displaced per paw versus baseline (Sprague Dawley rats; 2 Hr) [mL] | Paw Edema, volume of water displaced per paw versus baseline (Sprague Dawley rats; 4 Hr) [mL] | Paw Edema, volume of water displaced per paw versus baseline (Sprague Dawley rats; 6 Hr) [mL] | change in thickness of the left knee as compared to the right knee, percent change (Lewis rats [1]; 0 Hr) [%] | Binding to Cleavage Site Up stream [2] | Paw Edema, volume of water displaced per paw versus baseline (Lewis rats [4]; 0 Hr) [mL] | Paw Edema, volume of water displaced per paw versus baseline (Lewis rats [4]; 2 Hr) [mL] | Binding to Cleavage Site Down stream [2] | IC50 (PAR-2) [nM] | further results |
| --- | --- | --- | --- | --- | --- | --- | --- | --- | --- | --- | --- |
| COc1ccc2c(c1)c(CC(=O)O)c(C)n2C(=O)c1ccc(Cl)cc1 [Indomethacin, reference compound] | 0.00 ± 0.00 | 0.26 ± 0.22 | 0.28 ± 0.08 | 0.49 ± 0.16 | – | – | – | – | – | – | – |
| SLIGRL [reference compound] | – | – | – | – | 0.00 ± 0.00 | – | – | – | – | – | – |
| B1 | 0.00 ± 0.00 | – | – | – | 0.00 ± 0.00 | xxx | 0.00 ± 0.00 | 0.15 ± 0.06 | – | – | change in thickness of the left knee as compared to the right knee, percent change (Lewis rats [1]; 2 Hr): 1.10 ± 1.13%; change in thickness of the left knee as compared to the right knee, percent change (Lewis rats [1]; 72 Hr): 3.48 ± 0.66%; effect on paw swelling (rats; administered IP): significantly decreased paw swelling; inhibition of swelling, dose dependence (rats; administered IP): dose-dependent manner; effect on paw swelling (rats; administered SC): not when administered SC; bioavailability [3]: suboptimal |
| B2 | – | – | – | – | – | – | – | – | xx | > 1000 | – |
| B3 | – | – | – | – | – | xxx | – | – | – | – | – |
| B4 | 0.00 ± 0.00 | 0.57 ± 0.08 | 1.06 ± 0.16 | 1.13 ± 0.08 | – | – | 0.00 ± 0.00 | 0.22 ± 0.02 | xx | > 1000 | Paw Edema, volume of water displaced per paw versus baseline (Lewis rats [4]; 4 Hr): 0.22 ± 0.05 mL; Paw Edema, volume of water displaced per paw versus baseline (Lewis rats [4]; 6 Hr): 0.32 ± 0.06 mL; Paw Edema, volume of water displaced per paw versus baseline (Lewis rats [4]; 8 Hr): 0.51 ± 0.11 mL |
